{"source": "patent US20090148863A1", "key": {"[1]": {"target": "T-ZZ (transmembrane/translocation (T) domain of diphtheria toxin fused at its C-terminus with ZZ, a small portion of protein A) (UniProt P00588)", "sequence (P00588 234-410)": "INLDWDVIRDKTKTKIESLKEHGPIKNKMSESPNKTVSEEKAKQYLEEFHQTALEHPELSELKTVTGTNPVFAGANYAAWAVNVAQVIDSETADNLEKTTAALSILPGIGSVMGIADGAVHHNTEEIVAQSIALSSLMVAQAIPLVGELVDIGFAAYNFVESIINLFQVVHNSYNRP", "experiment": "slope of FIG. 6A in the first 60 min, 11.12 nM AgMMUA-IgG, T-ZZ at 0.37 molecules/um^2 on living cells"}, "[2]": {"target": "T-ZZ (transmembrane/translocation (T) domain of diphtheria toxin fused at its C-terminus with ZZ, a small portion of protein A) (UniProt P00588)", "experiment": "slope of FIG. 6A in the first 60 min, 2.78 nM AgMMUA-IgG, T-ZZ at 0.37 molecules/um^2 on living cells"}, "[3]": {"target": "T-ZZ (transmembrane/translocation (T) domain of diphtheria toxin fused at its C-terminus with ZZ, a small portion of protein A) (UniProt P00588)", "experiment": "counting single bound nanoparticles on living cells with T-ZZ against time (SNOMS, FIG. 6A)"}, "[4]": {"target": "T-ZZ (transmembrane/translocation (T) domain of diphtheria toxin fused at its C-terminus with ZZ, a small portion of protein A) (UniProt P00588)", "experiment": "isotherm of the fraction of bound T-ZZ on living cells against AgMMUA-IgG concentration at equilibrium (SNOMS)"}, "[5]": {"target": "protein A (PrA) from Staphylococcus aureus (Staphylococcus aureus) (UniProt P38507)", "experiment": "UV-vis absorbance change, 1.1 nM AgMMUA-IgG with about 100 nM PrA in PBS"}, "[6]": {"target": "T-ZZ (transmembrane/translocation (T) domain of diphtheria toxin fused at its C-terminus with ZZ, a small portion of protein A) (UniProt P00588)", "experiment": "slope of FIG. 6A in the first 60 min, 1.39 nM AgMMUA-IgG, T-ZZ at 0.37 molecules/um^2 on living cells"}, "[7]": {"target": "T-ZZ (transmembrane/translocation (T) domain of diphtheria toxin fused at its C-terminus with ZZ, a small portion of protein A) (UniProt P00588)", "experiment": "single nanoparticle imaging on living cells with T-ZZ, value given in the summary"}, "[8]": {"target": "protein A (PrA) from Staphylococcus aureus (Staphylococcus aureus) (UniProt P38507)", "experiment": "UV-vis absorbance against time, simulation matched to the data of FIG. 3B"}, "[9]": {"target": "protein A (PrA) from Staphylococcus aureus (Staphylococcus aureus) (UniProt P38507)", "experiment": "UV-vis absorbance, average of equilibrium and kinetic methods, three repeats"}, "[10]": {"target": "T-ZZ (transmembrane/translocation (T) domain of diphtheria toxin fused at its C-terminus with ZZ, a small portion of protein A) (UniProt P00588)", "experiment": "slope of FIG. 6A in the first 60 min, 5.56 nM AgMMUA-IgG, T-ZZ at 0.37 molecules/um^2 on living cells"}, "[11]": {"target": "T-ZZ (transmembrane/translocation (T) domain of diphtheria toxin fused at its C-terminus with ZZ, a small portion of protein A) (UniProt P00588)", "experiment": "slope of FIG. 6B, 2.78 nM AgMMUA-IgG, T-ZZ at 0.21 molecules/um^2 on living cells"}, "[12]": {"target": "protein A (PrA) from Staphylococcus aureus (Staphylococcus aureus) (UniProt P38507)", "experiment": "UV-vis absorbance against time, slope of FIG. 3C"}}}
{"substance": "AgMMUA-IgG nanoparticles (immunoglobulin G from rabbit serum covalently conjugated to 11.6 nm Ag nanoparticles carrying a mixed MUA/MCH monolayer) (antibody)", "values": [{"measurement": "binding rate (molecules/min)", "setting": "[1]", "result": 27}, {"measurement": "binding rate (molecules/min)", "setting": "[2]", "result": 5.3}, {"measurement": "Ka", "setting": "[3]", "result": "3e+07", "unit": "M⁻¹"}, {"measurement": "koff", "setting": "[3]", "result": 0.0003, "unit": "s⁻¹"}, {"measurement": "kon", "setting": "[3]", "result": 9000, "unit": "M⁻¹ s⁻¹"}, {"measurement": "Ka", "setting": "[4]", "result": "4.8e+07", "unit": "M⁻¹"}, {"measurement": "amount of AgMMUA-IgG nanoparticles bound with PrA at equilibrium", "setting": "[5]", "result": 0.14, "unit": "nM"}, {"measurement": "binding rate (molecules/min)", "setting": "[6]", "result": 3}, {"measurement": "Ka", "setting": "[7]", "result": "4.3e+07", "unit": "M⁻¹"}, {"measurement": "koff", "setting": "[8]", "result": "5.4e-05", "unit": "s⁻¹"}, {"measurement": "Ka", "setting": "[9]", "result": "1.9e+06", "unit": "M⁻¹"}, {"measurement": "binding rate (molecules/min)", "setting": "[10]", "result": 20}, {"measurement": "binding rate (molecules/min)", "setting": "[11]", "result": 2.3}, {"measurement": "kon", "setting": "[12]", "result": 120, "unit": "M⁻¹ s⁻¹"}]}
